The text below walks through data of patent US20180064809A1 (University of Texas, published 2018).

In assay [1] the target is syndecan-4 (SD-4) on mouse T cells (mouse) (UniProt O35988). Kind of assay: cell-based or functional assay.
Assay [2] has as its target T1, Human DC-HIL (human, UniProt Q14956 23-572).
T1 sequence (looked up): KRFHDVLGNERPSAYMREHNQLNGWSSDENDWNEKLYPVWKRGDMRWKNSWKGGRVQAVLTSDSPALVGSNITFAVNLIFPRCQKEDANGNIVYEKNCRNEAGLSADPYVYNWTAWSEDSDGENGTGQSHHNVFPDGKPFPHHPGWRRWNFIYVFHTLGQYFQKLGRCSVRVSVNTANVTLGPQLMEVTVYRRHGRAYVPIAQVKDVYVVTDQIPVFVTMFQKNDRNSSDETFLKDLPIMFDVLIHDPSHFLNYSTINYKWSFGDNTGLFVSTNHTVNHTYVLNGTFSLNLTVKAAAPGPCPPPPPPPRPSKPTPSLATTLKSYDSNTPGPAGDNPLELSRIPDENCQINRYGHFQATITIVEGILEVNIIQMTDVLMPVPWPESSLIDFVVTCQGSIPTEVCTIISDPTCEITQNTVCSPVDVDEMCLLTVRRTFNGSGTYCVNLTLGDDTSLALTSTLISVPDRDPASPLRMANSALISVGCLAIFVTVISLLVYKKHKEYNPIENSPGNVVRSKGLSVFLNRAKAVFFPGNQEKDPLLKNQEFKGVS
Kind of assay: cell-based or functional assay.

syndecan-4 (SD-4) on mouse T cells (mouse), sequence (O35988 24-198): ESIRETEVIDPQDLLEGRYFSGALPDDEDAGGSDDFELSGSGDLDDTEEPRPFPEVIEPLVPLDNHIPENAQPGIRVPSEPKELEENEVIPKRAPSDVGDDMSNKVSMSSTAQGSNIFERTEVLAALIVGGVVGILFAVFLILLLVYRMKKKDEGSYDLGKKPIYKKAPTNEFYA

As to “DC-HIL-Fc fusion protein (from UniProt Q99P91 23-502)”, in assay [1], the restoration of pmel-1 T cell activation suppressed by melanoma-MDSC is less than 90%.

B1: 3D5 mouse anti-human DC-HIL mAb (antibody, IgG1, V domains shown)
VH: QVQLQQSGAELVKPGTSVKLSCKASGYTFTNYYMYWVKQRPGQGLEWIGEINTRNGGNRFNEKFKNKAILTVDKSSNTAYIQVSSLTSEDSAVYYCTTGFAYWGQGTLVTVSA
VL: QIVLTQSPAIMSASLGEEITLTCSASSSISYMHWYQQKSGTSPKLLIYTTSTLSSGVPSRFSGSGSGTFYSLTISSVEAEDAADYYCHQSSSYPYTFGGGTKLEIKR
As to B1, the “T cell IFN-γ response against control IgG-treated cultures, kidney cancer” value in assay [2] was 20 fold greater than control IgG-treated cultures.
